# Reference: patent publication US8017326B2, “Methods of modulating cell death based on the Bit-1/AES regulatory pathway” (Sanford-Burnham Medical Research Institute, priority 2002, dated 2011)
# Entries after “also recorded” stand apart in the source; their conditions may differ.
# B1: AES: human AES, 197 residue Groucho/TLE family protein (SEQ ID NO:6) that associates with Bit1 (protein, listed as Homo sapiens)
# chain: MMFPQSRHSGSSHLPQQLKFTTSDSCDRIKDEFQLLQAQYHSLKLECDKLASEKSEMQRHYVMYYEMSYGLNIEMHKQAEIVKRLNGICAQVLPYLSQEHQQQVLGAIERAKQVTAPELNSIIRQQLQAHQLSQLQALALPLTPLPVGLQPPSLPAVSAGTGLLSLSALGSQAHLSKEDKNGHDGDTHQEDDGEKSD
# B2: AES residues 106-197: AES deletion mutant, amino-terminal fusion with GFP (protein, UniProt Q08117 106-197, looked up, fragment)
# chain: GAIERAKQVTAPELNSIIRQQLQAHQLSQLQALALPLTPLPVGLQPPSLPAVSAGTGLLSLSALGSQAHLSKEDKNGHDGDTHQEDDGEKSD
# modifications: GFP fusion
# notes: AES deletion mutant, amino-terminal fusion with GFP
# B3: TLE2: TLE family protein (protein, UniProt Q04725 1-743, looked up)
# Transducin-like enhancer …: MYPQGRHPTPLQSGQPFKFSILEICDRIKEEFQFLQAQYHSLKLECEKLASEKTEMQRHYVMYYEMSYGLNIEMHKQAEIVKRLSGICAQIIPFLTQEHQQQVLQAVERAKQVTVGELNSLIGQQLQPLSHHAPPVPLTPRPAGLVGGSATGLLALSGALAAQAQLAAAVKEDRAGVEAEGSRVERAPSRSASPSPPESLVEEERPSGPGGGGKQRADEKEPSGPYESDEDKSDYNLVVDEDQPSEPPSPATTPCGKVPICIPARRDLVDSPASLASSLGSPLPRAKELILNDLPASTPASKSCDSSPPQDASTPGPSSASHLCQLAAKPAPSTDSVALRSPLTLSSPFTTSFSLGSHSTLNGDLSVPSSYVSLHLSPQVSSSVVYGRSPVMAFESHPHLRGSSVSSSLPSIPGGKPAYSFHVSADGQMQPVPFPSDALVGAGIPRHARQLHTLAHGEVVCAVTISGSTQHVYTGGKGCVKVWDVGQPGAKTPVAQLDCLNRDNYIRSCKLLPDGRSLIVGGEASTLSIWDLAAPTPRIKAELTSSAPACYALAVSPDAKVCFSCCSDGNIVVWDLQNQTMVRQFQGHTDGASCIDISDYGTRLWTGGLDNTVRCWDLREGRQLQQHDFSSQIFSLGHCPNQDWLAVGMESSNVEILHVRKPEKYQLHLHESCVLSLKFASCGRWFVSTGKDNLLNAWRTPYGASIFQSKESSSVLSCDISRNNKYIVTGSGDKKATVYEVVY
# B4: vitronectin: extracellular matrix protein coated on culture dishes (SIGMA) (protein, UniProt P04004 20-478, looked up)
# Vitronectin: DQESCKGRCTEGFNVDKKCQCDELCSYYQSCCTDYTAECKPQVTRGDVFTMPEDEYTVYDDGEEKNNATVHEQVGGPSLTSDLQAQSKGNPEQTPVLKPEEEAPAPEVGASKPEGIDSRPETLHPGRPQPPAEEELCSGKPFDAFTDLKNGSLFAFRGQYCYELDEKAVRPGYPKLIRDVWGIEGPIDAAFTRINCQGKTYLFKGSQYWRFEDGVLDPDYPRNISDGFDGIPDNVDAALALPAHSYSGRERVYFFKGKQYWEYQFQHQPSQEECEGSSLSAVFEHFAMMQRDSWEDIFELLFWGRTSAGTRQPQFISRDWHGVPGQVDAAMAGRIYISGMAPRPSLAKKQRFRHRNRKGYRSQRGHSRGRNQNSRRPSRATWLSLFSSEESNLGANNYDDYRMDWLVPATCEPIQSVFFFSGDKYYRVNLRTRRVDTVDPPYPRSIAQYWLGCPAPGHL
# B5: p35: caspase inhibitor protein, transfected expression construct (protein, UniProt P08160 1-299, looked up)
# Early 35 kDa protein: MCVIFPVEIDVSQTIIRDCQVDKQTRELVYINKIMNTQLTKPVLMMFNISGPIRSVTRKNNNLRDRIKSKVDEQFDQLERDYSDQMDGFHDSIKYFKDEHYSVSCQNGSVLKSKFAKILKSHDYTDKKSIEAYEKYCLPKLVDERNDYYVAVCVLKPGFENGSNQVLSFEYNPIGNKVIVPFAHEINDTGLYEYDVVAYVDSVQFDGEQFEEFVQSLILPSSFKNSEKVLYYNEASKNKSMIYKALEFTTESSWGKSEKYNWKIFCNGFIYDKKSKVLYVKLHNVTSALNKNVILNTIK
# What was measured:
# [1] = test system: HEK 293T cells; test: Percentage of GFP-positive detached cells after transfection; format: cell-based, human; conditions: 48 hours after transfection, GFP fusion construct
# Experimental: (§1) To determine if Bit1 and AES are both required for apoptosis induction, HEK 293T, HOP92, and CHO cells were transfected with a GFP (vector), GFP-Bit1, or GFP-AES fusion protein constructs, as indicated in FIG. 3E. The cells were examined 48 hours (HEK 293T and CHO) or 72 hours (HOP92) after transfection, and the percentage of GFP-positive detached cells was measured.
# [2] = test system: Thymosin β-4; test: Northern blot of ecdysone-induced Bit1 or AES cell lines; format: cell-based, human; conditions: ecdysone-inducible ECR-293 cell line expressing Bit1 or AES
# Experimental: (§2) To determine whether the Bit1/AES pathway can regulate the transcription of genes other than Bcl-2, two stable cell lines were established expressing either-Bit1 or AES under control of an ecdysone-inducible promoter. To detect genes regulated by Bit1 or AES, probes were prepared from the ecdysone-induced cell lines and used to screen microarrays representing 19,000 human cDNAs. […] Down-regulation of HSP-70 and thymosin 4 in cells induced to express Bit1 or AES was confirmed by Northern blot analysis (see FIG. 7).
# (§3) Northern blot analysis was performed as follows. Total RNA (10 μg) was electrophoresed on a 1% agarose-formaldehyde gel and transferred to nitrocellulose filters. The filters were hybridized using the same RNA probes as in the microarray experiments in Rapid-hyb buffer and washed according to the manufacturer's instructions (Amersham-Pharmacia).
# [3] = test system: Heat Shock 70 kD protein 1A; test: as above; format: cell-based, human; conditions: ecdysone-inducible ECR-293 cell line expressing Bit1 or AES
# Experimental: as §2, §3
# [4] = test system: Bcl-2 promoter; test: Bcl-2 promoter reporter assay in CHO cells; format: cell-based, Chinese hamster; conditions: CHO cells, 1 μg Bcl-2-luciferase reporter construct, 24 hours in culture
# Source text: The entire CGI-147 open reading frame encodes a 27-kDa protein with no sequence similarity to other proteins. […] To denote this inhibitory transcriptional activity, the Clone-3 gene was denoted Bit1 for Bcl-2 inhibitor of transcription.
# [5] = test system: CHO cells; test: Scoring of rounded-up cells expressing GFP as dead cells; format: cell-based, Chinese hamster
# Experimental: AES was assayed for pro-apoptotic activity in CHO cells transfected with a green fluorescent protein (GFP)-AES fusion protein. […] However, in HEK 293 cells, which express no detectable Bit1 by immunohistochemistry or Northern analysis, transfection of AES alone was not apoptotic.
# Furthermore, apoptosis was measured in cells transfected with Bit1 (5 μg DNA), AES (5 μg DNA) or both (5 μg each). Rounded up cells expressing GFP were scored as dead cells 24 and 48 hours after the transfection.
# To determine if TLE1 suppresses apoptosis induced by AES in CHO cells, cells were transfected with GFP-AES or GFP-TLE1 alone, or both. Cell death was assessed by scoring rounded-up cells expressing GFP 48 hours later.
# [6] = test system: CHO cells; test: Percentage of GFP-positive detached cells after transfection; format: cell-based, Chinese hamster; conditions: 48 hours after transfection, GFP fusion construct
# Experimental: as §1
# [7] = test system: 19,000 human cDNAs; test: cDNA microarray analysis of ecdysone-induced Bit1 or AES cell lines; format: cell-based
# Experimental: as §2
# cDNA microarray analysis was performed as follows. Total RNA was purified 48 hours after treatment with 10 μM ponasterone A (Invitrogen; San Diego, Calif.) from the ecdysone inducible cell line ECR-293-Bit1 or ECR-293-AES according to the manufacturer's instructions (Qiagen; Valencia, Calif.). cDNA probes were generated and hybridized with a microarray containing 19,000 human cDNAs from Microarray Centre at University Health Network, Ontario Cancer institute. cDNAs were labeled with fluorescent dyes (Cy3 or Cy5) using reverse transcription. Arrays were processed and hybridized essentially as described in Iyer et al., Science 283:83-87 (1999). After hybridization, arrays were scanned to measure fluorescence using a ScanArray 4000 scanner (Perkin Elmer; Meriden, Conn.). Raw data files generated by scanner software were imported into ImaGene and Gene Spring for analysis. Experiments were performed in duplicate using color reversals.
# [8] = test system: CHO cells; test: Deletion analysis, cell death by trypan blue exclusion; format: cell-based, Chinese hamster; conditions: 10 μg construct, trypan blue exclusion 48 hours after transfection
# Experimental: The amino-terminal portion of Bit1 (residues 16-40) is hydrophobic and can serve as a transmembrane domain or signal peptide sequence. When the hydrophobicity of this portion was reduced by substitution of glycine 22 and glycine 38 by serine, Bit1 apoptotic activity was reduced.
# Deletion analysis was performed as follows. The indicated deletion mutants were cloned into vector pEGFP-C1, and 10 μg of each plasmid construct transfected into CHO cells. Cell death was measured by trypan blue exclusion 48 hours after transfection.
# To delineate the pro-apoptotic domain of AES, a series of AES deletion mutants was prepared as amino-terminal fusions with GFP in vector pEGFP-C1. Various AES deletion constructs (10 μg) were transfected into CHO cells, and cell death measured by trypan blue exclusion 48 hours after transfection.
# [9] = test system: Bit1-induced apoptosis in HEK 293 cells; test: Extracellular matrix proteins and Bit1-induced apoptosis, trypan blue staining; format: cell-based, human; conditions: HEK 293 cells plated onto coated dishes, 10 μg Bit1 plasmid, 48 hours
# Experimental: Several extracellular matrix proteins were assayed for the ability to modulate Bit1-mediated apoptosis. Cells were plated onto bacterial culture dishes pre-coated overnight with fibronectin (Chemicon; Temecula; CA), vitronectin (SIGMA; St. Louis, Mo.) or type I collagen (SIGMA), and transfected and assayed for apoptosis as described above.
# To analyze integrin involvement in protecting attached cells against the pro-apoptotic effect of Bit1, Bit1 cell lines expressing either α5β1 or αvβ1 as the main fibronectin receptor were compared. The two cell lines attach equally well to fibronectin but, like cytoplasmically truncated α5β1, αvβ1 fails to protect cells against apoptosis induced by serum deprivation (Zhang et al., supra, 1995; and Matter and Ruoslahti, supra, 2001).
# Experiments with extracellular matrix proteins were performed as follows. Cells were plated onto uncoated tissue culture plates or onto bacterial culture plates coated with fibronectin, vitronectin or collagen, and allowed to attach in the presence of serum. The attachment was equal on all of these surfaces. The cells were then transfected with 10 μg of Bit1 expression plasmid; where indicated, cells were treated with a control IgG of unrelated specificity or monoclonal anti-human α5 antibody (Chemicon), both at 10 μg/ml. Cell death was measured by trypan blue staining 48 hours after the transfection.
# [10] = test system: Bit1-induced apoptosis in HEK 293 cells; test: Co-transfection of Bit1 with anti-apoptotic proteins; format: cell-based, human; conditions: HEK 293 cells co-transfected with Bit1
# Experimental: Co-transfections were performed with cells plated on non-coated dishes transfected with 5 μg Bit1 plasmid alone or together with 10 μg dominant negative (DN) R-Ras, or activated H-Ras plasmid (Zou et al., Proc. Natl. Acad. Sci. USA 96: 13813-13818 (1999)). […] Expression of the transfected proteins was confirmed by immunoblotting. Apoptosis was assayed as described above.
molecule,measurement,setting,value
B1,effect on viability of 293T cells,[1],no effect on the viability
same,"Northern result, suppression of Thymosin β-4",[2],4 fold
same,"Northern result, suppression of Heat Shock 70 kD protein 1A",[3],3 fold
same,Bcl-2 promoter activity,[4],down-regulate
same,time within which CHO cells receiving GFP-AES died,[5]; GFP-AES fusion protein,≤ 48 h
same,apoptosis induction in CHO cells,[6],induced apoptosis
same,Bcl-2 expression,[7]; Bit1 and AES stable cell lines,not measurably altered
same,Microarray result: gene induced,"[7]; at least a two-fold induction, value is the gene",DNA replication licensing factor; also recorded: NIK-related kinase 17; also recorded: CMP-N-acetylneuraminic acid
same,Microarray result: gene suppressed,"[7]; at least a two-fold suppression, value is the gene",Heat shock 70 KD protein 1A; also recorded: Thymosin β-4; also recorded: KCNAB2; also recorded: FLJ10386; also recorded: NET-5; also recorded: SRY-related HMG-box gene 4
B2,pro-apoptotic activity of deletion constructs,[8],no apoptotic activity
B3,effect on apoptosis induced by AES,[5]; rounded-up GFP cells scored 48 hours later,modestly suppresses
B4,protection from Bit1-induced apoptosis,[9],largely protected
B5,effect on apoptosis induced by Bit1,[10],little or no effect
